# Experimental data as given in the nanobody polyreactivity screen of Harvey et al. (2022).
# Assay: yeast display, Sf9 membrane polyspecificity reagent, FACS + sequencing; frameworks hold sequencing errors
# Summary of the method: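 Galactose-induced (36–48 hours) yeast carrying a synthetic nanobody display library were exposed to 10% biotinylated, detergent-solubilized Sf9 membrane reagent at 4 °C for 1 hour. FACS followed streptavidin microbead enrichment, using low and high (top ~1%) gates for expression (anti-HA) and reagent binding (streptavidin). Colony PCR, MiSeq 2 × 250 sequencing and CDR-length filtering followed. Labels for polyreactivity reflect the gate of origin.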
row,Sequence,polyreactivity (PSR sort gate)
1,QVQIVESGAGLVQAGGSLSLSCDASGFIFVWYAMGWYRQAPGKERELVAAISWTGGSTYYADSVKGRFTISRDNAKNTVYLQINSLKPEDTAVYYCAATYEFYPEELDYWGQGTQVTVSS,low polyreactivity
2,QVQIVESGGGIVQAGGSLRLSSAASGSTFSFYVMGWYRHAPGKEREWVAAISWSSVGTYYADSVKGRFTISRDNAKNTVYLQMNSLKPDDTAVYYCAAERYRRVAKHGYWGQGTQVTVSS,high polyreactivity
3,QVQIVESGGGLVQAAGSLRLSCAASGSTFQTYAMGWYRQAPGKERELVAAITSGGSTNYADSVKGRFTISRDNAKNTVYLQMNSLKPEDTAVSYCAVRQIYQTSDHRLQYDYWGQGTQVTVSS,low polyreactivity
4,QVQIVESGGGLVQAGGRLRLSCAYSGLIISWYAMGCDIQSPGKERELVAAISGSVGSTYYADPVKGRFTISRDNAKNTVYLQMNSLKPEDTAVYYCAARSKDGGGPMYYWGQGTQVTVSS,high polyreactivity
5,QVQIVESGGGLVQAGGSHRISCAASGLIFQSNAMGWYRQAPGKESELVAAISTAGSTNYADSVKGRFTISRDNAKNTFYFQMNSLIPQDTAVYYFAAQVSTPYRYPRQMLYDSWGQGTQVTVSS,low polyreactivity
6,QVQIVESGGGLVQAGGSHRLSCAASGSTFDAYAMGWYRQEPGKEREMVAAISTRGGRTYYADSVKGRFTISRDNAKNTVYLQMNSLKPEDTAVYYCNAVVARVNVRGTPAFDYWGQGTQVTVSS,high polyreactivity
7,QVQIVESGGGLVQAGGSLPLSSAPSGSIFAPYAMGWYRQAPGKERELVAAINISGGTYYADSVKGRFTISRDNAKNTLYLQMNSLKPEDTAVYYCAARYLYGYYGFDYWGQGTQVTVSS,high polyreactivity
8,QVQIVESGGGLVQAGGSLRISCAASGRTFRWYAMGWYRQAPGKERELVASITWSGGSTYYADSVKGRFTISRDNAKNSVYLQMNSLKPEDTAVYYCAAEKRYTYVGGPFNYWGQGIQVTVSS,high polyreactivity
9,QVQIVESGGGLVQAGGSLRLICAASGSTFGLNAMGWYRQAPGKERELVAAITRSDITNYADSVKGRFTISRDNAKNTVYLKLNSLKPEDTAVYYCNKTPDRHRRYFGYGYWGQGTLVTVSS,low polyreactivity
10,QVQIVESGGGLVQAGGSLRLICAASGYTFTIYAMGWYRQAPGKERELVAAITTIGGRTYYADSVKGRFTISRDNAKNTVYLQMNSLKPEATAVYYCAARARVEGGYRGKFGYWGQGTQLTVSS,high polyreactivity
11,QVQIVESGGGLVQAGGSLRLRCAASGRIFAYYAMGWYRQAPGKERELVAAISRSGVSTYYADSVKGRFTISRDNAKNTVYLQMNSLKPEDTAVYYCAARWRSGFTSGDYWGQGTQVTVSS,low polyreactivity
12,QVQIVESGGGLVQAGGSLRLRCAASGRIIYKNAMGWYRQAPGKERELVAAITTSGGSTYYADSVKGRFTISRDNSKNTVYLEMNSLKPEDTAVYYCATRGHYRQTINYWGQGTQVTVSS,high polyreactivity
13,QVQIVESGGGLVQAGGSLRLSCAASGFIFDNNAMGWSRQAPWKESELFATITSGGRTNYADSVKGRFTISRDNAKNTVYLRMNCLKPEDTAVYYCAAFYYLCSRRKTRDYWGQGTQVTVSS,low polyreactivity
14,QVQIVESGGGLVQAGGSLRLSCAASGFTFRGYAMGCYRQAPAKERELVAAISRSGGSTNYADSVKGRFTISRDNAKNTVYLKMNSMKPEDTAVYYCAAGWNPYDYWGQGTQVTVSS,high polyreactivity
15,QVQIVESGGGLVQAGGSLRLSCAASGIFYAMGWYRQAPWTKRELDDAISSVGSTNYADSVKGRFSISRDNAKNTVYLQMNSLKPEDTAVYYCAAYFYTYPVDRYGSYYWGQVTQVTVSS,low polyreactivity
16,QVQIVESGGGLVQAGGSLRLSCAASGIIFRYYAMGWYRQAPGKERELVAAISSSGVSTYYADSVKGRFTISRDYAKNTVYLQMNSLKPEDTAVYYCAAVTTWRIDYWGQGTQVNVSS,high polyreactivity
17,QVQIVESGGGLVQAGGSLRLSCAASGITFHDYAMGWDRQEPGQERELVATIRSSTYYADSVKGRFTISRDTAKNTVYLQMNSLKTEDTAVYYCNVRLSYSYISPSDWNFDYWGQGTQVTVSS,low polyreactivity
18,QVQIVESGGGLVQAGGSLRLSCAASGITFRRNAMGWYRQAPGKERELVAVITSVGTTYYADSVKGRFTISRDNAKNTVYLQMNSLKPEDTAVYYCAARFYWGQGTQVTVSS,high polyreactivity
19,QVQIVESGGGLVQAGGSLRLSCAASGRIFCGNVMGWYRQAPGKERELVAAISGRGGRTYYAHSVKGRFTISRDNAKNTVYLQMNSLKPEDTAVYYCAASTGEEISGKRYNYWGQGTQVTVSS,high polyreactivity
20,QVQIVESGGGLVQAGGSLRLSCAASGRIFDSYAMGWYRQAPGKERELVAAISQNSGSTYYADSVKGRFTISRDNEKNTVYLQMNSLKPEDTAVYYCAATRKTKRFGYWGQGTQVTVSS,high polyreactivity
21,QVQIVESGGGLVQAGGSLRLSCAASGRIFHWYTMGWYRQAPGKERELVAAISGSGGSTHYADSVKGRFTISRDNAKNTVYLQMNSLKPEDTAVYYCAADDGFYGQDLDYWGQGTQVTVSS,low polyreactivity
22,QVQIVESGGGLVQAGGSLRLSCAASGRIFQPYAMGWYRQATGKERELVAAITRRAGSTYYADSVKGRFTISRDNANNTVYVQMNSLKPEDTAVYYCAARGLYWAYEMEYWGQGTQVTVSS,low polyreactivity

row,Sequence,polyreactivity (PSR sort gate)
1,QVQIVESGGGLVQAGGSLRLSCAASGRIFTVYGKGWYRQAPGKERELVAAISWSGGGTYYADSVKGRFTISRDNAQNTVYLQKNSLKPDDTAVYYCNADRQYTWSLVFFSSEYDYWGQGTQVTVSS,low polyreactivity
2,QVQIVESGGGLVQAGGSLRLSCAASGRIFWAYAMGWYRQAPGKERELVAAITSGGSTYYADSVKGRFTISRDNAKNTVYLQMNRLKPDDTAVYYCAVGSNWVDDSPEDEYWGQGTQVTVSS,low polyreactivity
3,QVQIVESGGGLVQAGGSLRLSCAASGRIIKGYAMGWYRQAPGKDMELVADISEDGGSTYYADSVKGRFTISRDNAKNTVYLQMNSLKTEDTAVYFCAAEYYVVNYAIGYDYWGQGTQVTVSS,low polyreactivity
4,QVQIVESGGGLVQAGGSLRLSCAASGRTFVVNAMGWYRQAPGKERELVASISNKGSTYYADSVKGRFTISRDNAKNTVYLQMNSLNPEDTAVYYCAADEYWSWDGTRYGVHYYYWGQGTQVTVSS,low polyreactivity
5,QVQIVESGGGLVQAGGSLRLSCAASGRTFWGNAMGWYRQAPGKERELVASISSRGSSTYYADSVKGRFTISRDNAKNTVYLQMNSLKPEDTAVYYCAARTHYFPWPWYVWDYYSDGYWGQGTQVTVSS,low polyreactivity
6,QVQIVESGGGLVQAGGSLRLSCAASGRTLYQYSMGWYRQAPGKERELVAAITTSTGNTYYADSVKARFTISRDNAKYTVYSQMNSLKPEDTAVYYCAADTVWRLDYWGQGTQVTVSS,low polyreactivity
7,QVQIVESGGGLVQAGGSLRLSCAASGRTYKYYAMGWYRQAPGKERELDAGITSGSSTSYADSVKGRFTISRDNAKNTVYLQMNSLKPEDTAVYYCAAGIYPYRYDYWGQGTQVTVSS,high polyreactivity
8,QVQIVESGGGLVQAGGSLRLSCAASGSIFSDYVMGWYRQAPRKERELVATISRGGGSTFYADSVKGRFTISRDYAKITVYLQMNSLKPEDTAVYYCAAPPGPSGAKYDYWGQGTQVSVSS,low polyreactivity
9,QVQIVESGGGLVQAGGSLRLSCAASGSIFVNNAMGWYRQAPGKVRELVARISFSGGSTYYADSVKGRFTISRDNAKNTVYLQMISLNPEDTAVYYCAKTVLRTESGWWIKFDYWGQVTQVTVSS,low polyreactivity
10,QVQIVESGGGLVQAGGSLRLSCAASGSIFYYYAMGWYRQAPGNERELVADISISGGSTYYADSVKGRFTISRDTAKNTVYLQMNSQKPEDTAVYYSAATSTYRSYLEYDYWGQGTQVTVSS,low polyreactivity
11,QVQIVESGGGLVQAGGSLRLSCAASGSISVPYGMGWYRQAPGKERELVAAISGGSTNYADSVKGRFTISRDNAKNTVYLQMNSLKPEDTAVYFCAADWWAWYTRYDYWGQGSQVTVSS,low polyreactivity
12,QVQIVESGGGLVQAGGSLRLSCAASGSTFPWYVMGWYRQAPGKERELVAAISWSGGRTYYADSVKGRFTISRDNAKNTVYLQMTRLKPEDRAVYYCAAEFKLVSHTYYYWGQGTQVTVSS,low polyreactivity
13,QVQIVESGGGLVQAGGSLRLSCAASGSTFSYNAMGWYRQAPGKERELVATISNTDSTNYADSVKGRFTISRDNAKNTLYLQMNSLKPEDTSVYSCAAVVSTVDGMEYWGQGTQVNVSS,low polyreactivity
14,QVQIVESGGGLVQAGGSLRLSCAASGSTFVDYDMGWYRQAPGKERELVAGITTGGSTNYADSVKGRFTISRDNAKNTVYLQMNRLKPEDTAVYYCAATVYGIYYYGRDRYDYWGQATQVTVSS,low polyreactivity
15,QVQIVESGGGLVQAGGSLRLSCAASGSTFYPNAMGWYRQAPGKERELVAAISRGTRTKYADSVKGRFTISRDNAKNTVYLQINSLKPEDTAVYYCAADTGKGLDWGQGTHVTVSS,high polyreactivity
16,QVQIVESGGGLVQAGGSLRLSCAASGYIFYPYTMGWYRQAPVKERQLVAAITWSGSTYYADSVKGRFTISRDNAKNTVYLQMNSLKPEDTAVYYCARESDWWREFPYDYWGHGTQVTVSS,low polyreactivity
17,QVQIVESGGGLVQAGGSLRLSCAASGYIVRNAMGWYRQAPGKERELVAAISRRGGRTYYADSVKGRFTISRDNAKNTVYLQMHSLKPEDTAVYYCNKLPGTPRSLATGDYWGQGTQVTVSS,high polyreactivity
18,QVQIVESGGGLVQAGGSLRLSCADSGRTLYRYGMGWYRQAPGKERELVDVIDRGGSTNYADSVKGRFTISRDNAKNTVYLLMNSLKPEDTAVYYCAKRWTAREPWRKGMGYWGQGTQVTVSS,high polyreactivity
19,QVQIVESGGGLVQAGGSLRLSCAPSGRIFRKYAMGWYRQAPGKERELVAAISVGGGSTRYADSVKGRFTISRDNAKNTVYLQMNSLKPEDTAVYYCAVKWFSGGYDYWGQGTQVNVSS,low polyreactivity
20,QVQIVESGGGLVQAGGSLRLSCDASGRIFTAYAMGWYRQAPGKERELVAAISSGDSTYYAYSVKGRFSISRDNAKNTLYLQMNSLNPEDTEVYYCATCVYPDFEYDSWGQGTQVTVSA,low polyreactivity
21,QVQIVESGGGLVQAGGSLRLSCSASGSTFPFYAMGWYRQAPGKERELVAAITRSGSRTYYADSVKGRFTISRDNAKNTVFLQMNSLKPEDTAVYYFAASSTDLYFWGQGTQVTVSS,high polyreactivity
